Read-outs that look alike come from different tables or passages of the source.
B1: MBS303-2 (bispecific antibody against CD3 and CD20, MIL220 + MIL221-2) (bispecific antibody, human IgG1, kappa, lambda, L234A L235A, N297A)
heavy 1: QVQLVQSGAEVKKPGSSVKVSCKASGYAFSYSWINWVRQAPGQGLEWMGRIFPGDGDTDYNGKFKGRVTITADKSTSTAYMELSSLRSEDTAVYYCARNVFDGYWLVYWGQGTLVTVSSASTKGPSVFPLAPSSKSTSGGTAALGCLVKDYFPEPVTVSWNSGALTSGVHTFPAVLQSSGLYSLSSVVTVPSSSLGTQTYICNVNHKPSNTKVDKKVEPKSCDKTHTCPPCPAPEAAGGPSVFLFPPKPKDTLMISRTPEVTCVVVDVSHEDPEVKFNWYVDGVEVHNAKTKPREEQYASTYRVVSVLTVLHQDWLNGKEYKCKVSNKALPAPIEKTISKAKGQPREPQVYTLPPSREEMTKNQVSLSCAVKGFYPSDIAVEWESNGQPENNYKTTPPVLDSDGSFFLVSKLTVDKSRWQQGNVFSCSVMHEALHNHYTQKSLSLSPGK
light 1: DIVMTQTPLSLPVTPGEPASISCRSSKSLLHSNGITYLYWYLQKPGQSPQLLIYQMSNLVSGVPDRFSGSGSGTDFTLKISRVEAEDVGVYYCAQNLELPYTFGGGTKVEIKRTVAAPSVFIFPPSDEQLKSGTASVVCLLNNFYPREAKVQWKVDNALQSGNSQESVTEQDSKDSTYSLSSTLTLSKADYEKHKVYACEVTHQGLSSPVTKSFNRGEC
heavy 2: QVQLVQSGAEVKKPGSSVKVSCKASGYAFSYSWINWVRQAPGQGLEWMGRIFPGDGDTDYNGKFKGRVTITADKSTSTAYMELSSLRSEDTAVYYCARNVFDGYWLVYWGQGTLVTVSSGGGGSGGGGSGGGGSDIVMTQTPLSLPVTPGEPASISCRSSKSLLHSNGITYLYWYLQKPGQSPQLLIYQMSNLVSGVPDRFSGSGSGTDFTLKISRVEAEDVGVYYCAQNLELPYTFGGGTKVEIKGGGGSGGGGSGGGGSEVQLLESGGGLVQPGGSLRLSCAASGFTFNTYAMNWVRQAPGKGLEWVARIRSKYNNYATYYAISVKDRFTISRDDSKNTLYLQMNSLRAEDTAMYYCVRHGNFGNSYLSYWAYWGQGTLVTVSSASTKGPSVFPLAPSSKSTSGGTAALGCLVKDYFPEPVTVSWNSGALTSGVHTFPAVLQSSGLYSLSSVVTVPSSSLGTQTYICNVNHKPSNTKVDKKVEPKSCDKTHTCPPCPAPEAAGGPSVFLFPPKPKDTLMISRTPEVTCVVVDVSHEDPEVKFNWYVDGVEVHNAKTKPREEQYASTYRVVSVLTVLHQDWLNGKEYKCKVSNKALPAPIEKTISKAKGQPREPQVYTLPPSREEMTKNQVSLWCLVKGFYPSDIAVEWESNGQPENNYKTTPPVLDSDGSFFLYSKLTVDKSRWQQGNVFSCSVMHEALHNHYTQKSLSLSPGK
light 2: QAVVTQEPSLTVSPGGTVTLTCQSSTGAVTTNNYANWVQQKPGHAFRGLIGGTKQRAPGVPARFSGSLLGGKAALTLSGVQPEDEAEYYCVLWYSNLWVFGGGTKLTVLGQPKAAPSVTLFPPSSEELQANKATLVCLISDFYPGAVTVAWKADSSPVKAGVETTTPSKQSNNKYAASSYLSLTPEQWKSHRSYSCQVTHEGSTVEKTVAPT
notes: CD20:CD3 = 2:1
B2: chimeric anti-CD3 antibody CD3-19 (full length, human IgG1) (antibody, V domains shown)
VH: EVKLLESGGGLVQPKGSLKLSCAASGFTFNSYAMNWVRQAPGKGLEWVARIRSKYNNYATYYADSVKDRFTISRDDSQSILYLQMNNLKTEDTAMYYCVRHGNFGNSYLSYWAYWGQGTLVTVSA
VL: QAVVTQESALTTSPGETVTLTCDSSTGAVTTSNYANWVQEKPDHLFTGLIGGTQRSAPGVPARFSGSLIGDKAALTITGAQTEDEAIYFCVLWYSNLWVFGGGTKLTVLG
notes: also called chimeric CD3-19 antibody; parent antibody

Tests used:
[1] = target: T1, monkey CD20 (HEK293A/monkey CD20 cells) (monkey, UniProt P11836 1-297 (human entry)); assay: FACS on HEK293A/monkey CD20 (CynoCD20) cells, PE anti-human IgG secondary antibody, MFI
T1 construct: Stably expressed on HEK293A cells; also called cynomolgus CD20
T1 chain: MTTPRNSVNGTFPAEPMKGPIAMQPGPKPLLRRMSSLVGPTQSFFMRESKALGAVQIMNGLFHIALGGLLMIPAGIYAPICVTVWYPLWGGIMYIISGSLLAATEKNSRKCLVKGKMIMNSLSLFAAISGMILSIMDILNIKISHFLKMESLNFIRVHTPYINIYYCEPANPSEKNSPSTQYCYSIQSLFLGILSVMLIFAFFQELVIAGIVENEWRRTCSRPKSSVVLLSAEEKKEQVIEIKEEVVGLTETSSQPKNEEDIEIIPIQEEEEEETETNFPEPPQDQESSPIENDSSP

[2] = target: T2, human CD3ε-his (Cat #:10977-H08s, SinoBiological, China) (human, UniProt P07766 23-126); assay: SPR (BIAcore 8K); human CD3ε-his coupled to CM5 chip, antibody injected
T2 construct: Bought protein; also called human CD3ε protein; recombinant human CD3ε; not shown: his tag

[3] = target: T2, human CD3ε-his (Cat #:10977-H08s, …); assay: ELISA: plate coated with human CD3ε-his (hCD3ε-his), antibody titrated, HRP goat anti-human IgG, OD450
[4] = target: T3, human CD20 (HEK293A/human CD20 cells) (human, UniProt P11836 1-297); assay: cell-based or functional assay
T3 sequence: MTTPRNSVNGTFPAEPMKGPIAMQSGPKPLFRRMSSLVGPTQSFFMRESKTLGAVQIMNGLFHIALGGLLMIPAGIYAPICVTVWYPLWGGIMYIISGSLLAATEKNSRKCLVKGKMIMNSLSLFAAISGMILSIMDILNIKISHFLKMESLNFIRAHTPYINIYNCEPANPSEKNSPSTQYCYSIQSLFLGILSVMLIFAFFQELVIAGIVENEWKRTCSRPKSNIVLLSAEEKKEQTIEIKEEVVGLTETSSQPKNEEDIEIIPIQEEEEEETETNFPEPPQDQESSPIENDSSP

[5] = target: T3, human CD20 (HEK293A/human CD20 cells); assay: FACS on HEK293A/human CD20 cells, PE anti-human IgG secondary antibody, MFI
[6] = target: T4, human TCR/CD3 complex on cell surfaces (primary human CD4+ T cells; Jurkat cells; human PBMCs) (human, UniProt P07766 23-207); assay: FACS on primary human CD4+ T cells, PE goat anti-human IgG, MFI
T4 construct: whole, on cells; Native complex on cells; the γ, δ, ζ and TCR chains of the complex are present on the cells too; also called human CD3 complexes on cell surfaces; human CD3+ T cells

[7] = target: T5, monkey CD3ε-his (Cat #: 90047-C08H, SinoBiological, China) (monkey, UniProt Q95LI5 22-117); assay: ELISA: plate coated with monkey CD3ε-his, antibody titrated, HRP goat anti-human IgG, OD 450
T5 construct: Bought protein; also called monkey CD3ε protein; recombinant monkey CD3ε
T5 sequence: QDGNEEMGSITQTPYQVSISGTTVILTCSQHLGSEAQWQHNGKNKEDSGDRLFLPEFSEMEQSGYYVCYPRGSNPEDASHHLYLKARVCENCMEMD

[8] = target: T2, human CD3ε-his (Cat #:10977-H08s, …); assay: ELISA: plate coated with human CD3ε-his, antibody titrated, HRP goat anti-human IgG, OD 450
[9] = target: T2, human CD3ε-his (Cat #:10977-H08s, …); assay: as above; remark: listed apart in the source
[10] = target: T2, human CD3ε-his (Cat #:10977-H08s, …); assay: SPR (BIAcore 8K); human CD3ε-his coupled to CM5 chip, antibody injected; remark: listed apart in the source
[11] = target: T5, monkey CD3ε-his (Cat #: 90047-C08H, …); assay: ELISA: plate coated with monkey CD3ε-his, antibody titrated, HRP goat anti-human IgG, OD 450; remark: listed apart in the source

T2 sequence (P07766 23-126 limits assumed): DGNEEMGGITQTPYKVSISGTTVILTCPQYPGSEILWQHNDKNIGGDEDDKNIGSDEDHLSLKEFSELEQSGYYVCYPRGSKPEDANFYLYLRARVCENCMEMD
T4 sequence (P07766 23-207, one chain of several): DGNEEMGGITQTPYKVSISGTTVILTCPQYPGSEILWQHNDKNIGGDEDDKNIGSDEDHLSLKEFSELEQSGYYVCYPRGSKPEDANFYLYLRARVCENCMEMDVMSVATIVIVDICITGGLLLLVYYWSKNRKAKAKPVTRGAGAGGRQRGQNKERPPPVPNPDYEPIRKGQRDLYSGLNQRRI

Row | Binder | EC50 (read off the curve) [1] | Kd [2] | EC50 (read off the curve) [3] | EC50 of killing of HEK293A/hCD20 cells by T cells, MBS303-2 alone [4] | EC50 of killing of HEK293A/hCD20 cells by T cells, MBS303-2 with 1 µg/ml MIL62 [4] | EC50 (read off the curve) [5] | EC50 (read off the curve) [6] | EC50 (read off the curve) [7] | EC50 (read off the curve) [8] | EC50 (read off the curve) [9] | kon [10] | EC50 (read off the curve) [11]
1 | B1 | ~0.06 µg/mL | 1.79 nM | ~0.06 µg/mL | 0.0098 µg/mL | 0.0039 µg/mL | ~0.03 µg/mL |  |  |  |  |  | 
2 | B2 |  |  |  |  |  |  | ~0.7 µg/mL | ~0.05 µg/mL | ~0.05 µg/mL | ~0.05 µg/mL | 119000 M⁻¹ s⁻¹ | ~0.06 µg/mL

Source: patent publication US20220195043A1 (BEIJING MABWORKS BIOTECH, published 2022)
